Assay: yeast display, Sf9 membrane polyspecificity reagent, FACS + sequencing; frameworks hold sequencing errors
Summary of the method: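 A synthetic nanobody library was expressed on Saccharomyces cerevisiae BJ5465 by galactose induction for 36–48 hours. The library was stained for 1 hour at 4 °C with 10% biotinylated, detergent-solubilized Sf9 membrane reagent and enriched with streptavidin microbeads before FACS. Low and high (top ~1%) gates were set on anti-HA fluorescence for expression and streptavidin fluorescence for reagent binding, and each polyreactivity label reflects the gate of origin.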

Sequence: QVQLVESGGGLVQAGGSLRLSCAASGITNTHYAMGWYRQAPGKERELVAAITSSGRTYYADSVKGRFTISRDNAKNTVYLQMNSLKPEDTAVYYCAAEHSWYYGLLGYWGQGTQVTVSS
- polyreactivity (PSR sort gate): high polyreactivity

Sequence: QVQLVESGGGLVQAGGSLRLSCAASGSNFHPYAMGWYRPAPGKEREFVAAITFRGSTYYADSVKGRFTISRDNAKNTVYLQLNSLKPEDTAVYYCAARYNIFRRGSRNYDYWGQGTEVTVSS
- polyreactivity (PSR sort gate): high polyreactivity

Sequence: QVQLVESGGGLVQAGGSLRLSCAASGNIFGVYAMGWYRQAPGKERELVAAIRYSTVSTYYADSVKGRFTISRDNAKNTVYLQMNSLKPEDTAVYYCAAQRRRYLPGHYYYWGQGTQVTVSS
- polyreactivity (PSR sort gate): high polyreactivity

Sequence: QVHLVESGGVLVQAGGSLRLSCAASGSIYESYVMGWYRQAPRKERELVASISSGGSTYYADSVKGRFTISRDNAKNTVYFQNNSLKQEDTAGYYCAANYDGGYLDYEAGYRLEYDFWGQGTQVTVSS
- polyreactivity (PSR sort gate): low polyreactivity

Sequence: QVQLVESGGGLVQAGGSLRLSCAASGSIFNKNTMGWYRQAPGKERELVAAISGRTGITTYADSVKGRFTISRDNAKNTVYLQMNSLKPEDTAVYYCNAANRWRGSYDYWGQGTQVTVSS
- polyreactivity (PSR sort gate): high polyreactivity

Sequence: QDQLVDSGGGLVQAGGSLRLSCAASGSTFDANAMGWYRQAPGKERELVATISDGGSTNYADSVKGRFTISRDNAKNTVYLQMNSLKPEDTAVYYCAAVKLFLGLGYVYWGQGTQVTVSS
- polyreactivity (PSR sort gate): low polyreactivity

Sequence: QDHHVESGGGLVQAGGSLRLICAASGSTFSWNTMGWYRPAPGKERDLVAAISWSTGRTYYADSVKGRFTISRDNAKNTVYLQMISLKPEDTAVYYCAARRFVTDGTRREYDYWGQGTQVTVSS
- polyreactivity (PSR sort gate): high polyreactivity

Sequence: QVQLVESGGGLVQAGGSLRLSCAASGRTFVWYAMGWYRQAPGKERELVAAITLSGGSTYYADSVKGRFTISRDNAKNTVYLQMNSLKPEDTAVYYCAADGTYRPEDYDYWGQGTQVTVSS
- polyreactivity (PSR sort gate): low polyreactivity

Sequence: QVQLVESGGGLVQAGGSLRFSCDASGRSFYINAMGWYRQAPGKERELVAAITWSGGRTYYADSVKGRFTISRDNAKNTVYLQMNSLKPEDTAVYYCNTRSYSFYVPYRYDYWGQGTHVTVSS
- polyreactivity (PSR sort gate): high polyreactivity

Sequence: HVQLVESGGGLVQAGGSLRLSCAASGRIFNDYSMGWYRQAPGKERELVAAIRRRGDRTYYADSVKGRFTISRDNAKNTVYLQMNSLKPEDTAVYYCAKSQSAKGGYDYWGQGTQVTVSS
- polyreactivity (PSR sort gate): high polyreactivity

Sequence: QVQLVESGGGLVQAGGSLRLSCAASGIIFTRNAMGWYRQATGKERELVAAITYGGSTYYADSVKGRFTISRDNAKNTVYLQMNSLKPEDTAVYYCAVDAYRYRVHSYGKKYGYNYWGQGTQVTVSS
- polyreactivity (PSR sort gate): high polyreactivity

Sequence: QVQHVESVGGLVQAGGSLRLSCAASGRTFGAYDMGWYRQAPGKERELVAAITRSGGSTYYADSVKGRFTISRDNAKNTVYLQMNSLKPEDTAVYYCAARDQVYNYRFGSRGGVYYWGQGTQVTVSS
- polyreactivity (PSR sort gate): high polyreactivity

Sequence: QVQLVESGGGLVQAGGSLRLSCAASGFIFKSNAMGWYRQAPGKERELVAAITKRGGSTYYADSVKGRFTISRDNAKNTVYLQMNSLKPEDTAVYYCAVRKPYSRYGGFDYWGQGTQVTVSS
- polyreactivity (PSR sort gate): high polyreactivity

Sequence: QVQLVESGGGLVQAGGSLRLRSAASGYTFSIYAMGRYRQATGKERELVASISWSAGNTYYADYVKGRFTFSLDNAKNTVYLQMNSLKPEDTAVYYCAVPRRLIWYRPSSYDYWGQGTQVTVSS
- polyreactivity (PSR sort gate): low polyreactivity

Sequence: QVQLVESGGGLVQAGGSLRLSSADSGRTFYGNAMGWYRQSPGKERELVAAISKRGGNTYYADSVKWRFTISRDNAKNTVYLQMNSLKPEDTAVYYCARQARTPSSWYIYDSWGQGTQVTVSS
- polyreactivity (PSR sort gate): high polyreactivity

Sequence: QVQLVESGGGLVQAGGSLRLSCAASGSASRGNAMGWYRQAPGKERELVATISQSGGNTFYADSVKGRFTISRDNAKNSVYLQMNSLKPEDTAVYYCAAGRYWFGWYDYWGQGTQVTVSS
- polyreactivity (PSR sort gate): high polyreactivity

Sequence: QVQLVESGGGLVQAGGSLRLSCAASGSTFPWNAMGWYRQAPGKERELVAAISSGGSTNYADSVKGRFTISRDNAKNTVYLQMNSLKPEDTAVYYCNAYYWSDSRGKYDYWGQGTQVTVSS
- polyreactivity (PSR sort gate): low polyreactivity

Sequence: QVQLVESSGGLVQAGGSLRLSCADSGIIFQNYEMGWYRQAPGKDRELVAAITGSGGSTYYADSVKGRFTISRDNAKNTVYLQMNSLKPEDTAVDYCNADWEYYGKSDYWGQGTQVTVAS
- polyreactivity (PSR sort gate): low polyreactivity

Sequence: QVQLGESGGGLVQAGGSLLLSCAASGSIFRHYTMGWDSQAPGKERELVAVISSGGNTNYADSVKGRFTISRDNAKNTVYFQMNSLKPEDTAVYYCAARSHRYYSRVNYWGQGTQVTVSS
- polyreactivity (PSR sort gate): high polyreactivity

Sequence: QVQLVESGGGLVQAGGSLRLSCAASGRIFSYYAMGWYRQAPGKERELVASITSGGSTYADSVKGRFTISRDNAKNTVYLQMNSLKPEDTAVYYCAKGYYWLSTYGDSRYGYWGQGTQVTVSS
- polyreactivity (PSR sort gate): high polyreactivity

Sequence: QVQLVESGGGLVQAGGSLRLSCAASGRIFRYNAMGWYRQAPGKERELVAALTSGGSTNYADSVKGRFTISRDNAKNTVYLQMNSLKPEDTAVYYCAVTGYRPYAYRRRYPYDYWGQGTQVTVSS
- polyreactivity (PSR sort gate): high polyreactivity

Sequence: QVQLVESGGGLVQAGGSLRLTCAASGSIFLSYAMGWYRQPPGKDRELVAAISGGVNTYYADSVKGSFTISRDNAKNTVYLQMNSLKPEDTAVYYCYAVPHIYAEGTAYNYWGQGTQVTVSS
- polyreactivity (PSR sort gate): low polyreactivity

Sequence: QVQLVESGGGLVQAGGSLRLSCAASGRNFSHNAMGWYRQAPGKERELVAAISSRAGRTYADSVKGRFTISRDNAKYTVYLQMNSLKQEDTGVYYCAVRSKGKDVGYWGQGTQVTVSS
- polyreactivity (PSR sort gate): high polyreactivity

Sequence: QVQLVESGGGLVQAGGSLRVSCAASGFTFTRYTMGWYRQAPGKEWELVAAITRSGGNTYYADSVKGRFTISRDNAKNTVYLQMNSLKPEDTAVYYCAARQVSGIGPYDYWGQGTQVTVSS
- polyreactivity (PSR sort gate): high polyreactivity

Sequence: QVQLVESGGGLVQAGGSLRLSCAASGFIIPGYAMGWYRQAPGKEREFVAAISRSGGSTYYADSVKGRFTISRDNAKNTVYLQMNSLKPEDSAVYYCATRARGYTGYDYWGQGTQVTVSS
- polyreactivity (PSR sort gate): high polyreactivity

Sequence: QVQLVESGGGLVQAGGSLRLSCAASGRTFSYNAMGWYRQAPGKERELVAGISSRGGSTYYADSVKGRFTISRDNAKNTVYLQMNSLKPEDTAVYYCNALGRGKDSYSGVDYWGQGTQVTVSS
- polyreactivity (PSR sort gate): high polyreactivity

Sequence: QVQLVESGGGLVQAGGSLRLICAASGSTYDRNVLGWYRQEPGKERELVAAISRVSSTNYADSVKGRFTISRDNAKNTVYLQMNSLKPEDTAVYYCAADRAGSIMNYWGQGTQVTVSS
- polyreactivity (PSR sort gate): low polyreactivity

Sequence: QVQLVESGGGLVQAGGSLRLSCAASGFIFPFYAMGWYRQAPGKERELVAVIRTSSDRTYYADSVKGRFTISRDNAKNTVYLQMNSLKPEDTAVYYCAAETYRLFDYWGQGTQVTVSS
- polyreactivity (PSR sort gate): low polyreactivity

Sequence: QVQLVESGGGLVQAGGSLRLSCAASGSIFGFNAMGWYRQAPGKERELVAAINNGGSTNYADSVKGRFTISRDNAKNTVYLQMNSLKPEDTAVYYCAAVGGWRWSNQDYRYPYYYWGQGTQVTVSS
- polyreactivity (PSR sort gate): high polyreactivity

Sequence: QVQLVESGGGLVQAGGNLRLSCAASGIILYRYAMGWYRQAHGKERELVAAISRRGGSTYYADSVKGRFTISRDNAKNSVYLQMNSLKPEDTAVYYCAAYYRGYAYYYWGQGTQVTVSS
- polyreactivity (PSR sort gate): high polyreactivity

Sequence: QVQLVESGGGLVQAGGSLRLSCAASGYTFRRYAMGWYRQAPGKERELVAAINYSGGSTYYADSVKGRFTISRDNSKNTVYLQMNSLKPEDTAVYYCAARVPSPYVATYYYWGQGTQVTVSS
- polyreactivity (PSR sort gate): high polyreactivity

Sequence: QVQLVESGGGLVQAGGSLRLSCAASGYIFDYYAMGWYRQAPGKERELVAGISRRGGSTYYADSVKGRFTISRDNAKNTVYLQMNSLKPEDTAVYYCAGLGDDATSYGYWGQGTQVTVSS
- polyreactivity (PSR sort gate): high polyreactivity

Sequence: QVQLVESGGGLVQAGGSLRLSCAASGRTFPYNAMGWYRQAPGKERELVAAITSSGGSTYYADSVKGRFTISRDNAKNTVYLQMNSLKPEDTAVYYFAKGYYSPNYYYWGQGTQVTVSS
- polyreactivity (PSR sort gate): high polyreactivity

Sequence: QLQIVESGGGLVQAGGSLRLISAASGSTLAYYAMGWYRQEPGKERELVAAINWRTYYADSVKGRFTISRDNAMNTLYLQMNSLKPEDTAVYYCAAGYYLNKFYYWGQGTQVTVSS
- polyreactivity (PSR sort gate): high polyreactivity

Sequence: QVQLVESGGGLVQAGGSLRLSCAASGSIFAKYPMGWYRQAPGKERELVAAISSGGSTYYADSVKGRFTISRDNAKNTVYLQMNSLKPEDTAVYYCNKPYGKETRYTFNVWYEYNYWGQGTQVTVSS
- polyreactivity (PSR sort gate): low polyreactivity

Sequence: QVQLVETGGGLVQAGGSLRLSCAASGRTYVYNAMGWYRQAPGKERELVAAIDGGGDRTYYADSVKGRFTISRDNAKNTVYLQMNSLKPEDTAVYYCARDPGDTYYYSYQEGDYWGQGTQVTVSS
- polyreactivity (PSR sort gate): low polyreactivity

Sequence: QVQLVESGGGLVQAGGSLRLSCAASGYTFYINATGWYRQAPGKERELVAVITWSSGSTYYADSVKGRFTISRDNAKNTVYLQMNSLKPEDTAVYYCAADVTYEDGAWTIQYDYWGQGTQVTVSS
- polyreactivity (PSR sort gate): high polyreactivity

Sequence: QVQLEESGGGLVQAGGRLRLSCAASGNTFQVYAMGWSRQASGTERELVATITSGGSTNYADSVKGRFTISRDNAKNTVYLQMNSQIPDDTAVYYCARRAVYSKRRYDYWGQGTQVTVSS
- polyreactivity (PSR sort gate): low polyreactivity

Sequence: QVQLVESGGGLVQAGGSLRLSCAASGLIFWLNAMGWYRQAPGKERELVAAISSSGGRTYYADSVKGRFTISRDNAKNTVYLQMNSLKPEDTAVYYCNRGQQGRGWWGYDYWGHGTQVTVSS
- polyreactivity (PSR sort gate): high polyreactivity

Sequence: QVQLVESGGGLVQAGGSLRLSCAASGRTFRVYAMGWYRQAPGKERELVAAISRSTGDTYYADSVKGRFTISRDNAKNSVYLLMNRLKPEDTAVYYCAADVPGGEGDYAYEYWGQGTQVTVSS
- polyreactivity (PSR sort gate): low polyreactivity

Sequence: QVQLVESGGGLVQAGGILRLSCAASGIIFYYYAMGWYRQAPGKEMELVAGIRARGGITYYADSVKGRFTISRDNAKNTVYLLMNSLKPVDTAVYYCAKSTRPVSGVPDGPLYEYWGQGTQVTVSS
- polyreactivity (PSR sort gate): low polyreactivity

Sequence: QDQLVESGGGLVQAGGSLRLSCAASGRTFGYYVMGWYRQAPGKERELVAAISRSGGTTYYADSVKGRFTISRDNAKNTVYLQMNSLKPEDTAVYYCATDSRTGYDYWGQGTQVTVSS
- polyreactivity (PSR sort gate): high polyreactivity

Sequence: QVQLVESGAGLVQAGGSLRLSCAASGRIFHWYAMGWYRQAPGKERELVATANTSYADSVKGRFTISRDNAKNTVYLQMNSLKPEDTAVYYCATVGPRGRSLGDYWGQVTQVTVSS
- polyreactivity (PSR sort gate): low polyreactivity

— the nanobody polyreactivity screen of Harvey et al. (2022)
